Experimental data from patent US11447754B2, “In vitro methods of chemical conversion using non-stereospecific glutathione lyases” (WISCONSIN ALUMNI RESEARCH FOUNDATION, priority 2017, dated 2022).

B1: NaGSTNu: Nu-class glutathione S-transferase from Novosphingobium aromaticivorans DSM 12444 (Saro_2595), SEQ ID NO:18; non-stereospecific glutathione lyase (protein)
chain: MSSEYVPPKVWKWDKANGGAFASVNRPVAGPTSERELPVGKHPFQVYSLGTPNGQKATIMLEELLQLGFSEAEYDAWLIKIFEGDQFTSGFVDINPNSKIPAMVDRSGPEPFRVFESGAILMHLAEKFGVFLPTSGPARAECLSWLFWQVGSAPFIGGGFGHFYNYAPIKIEYAIDRYAMETKRLFDVANRRLAESRYLAGDEYTIADLATYTWFGNIYRGEAYGEAATFLSMHEYEHVGRWVGEIDARPGVLRGRLVNSSKGLAERHDASDFDALPPESLQAIVKGF
modifications: Novosphingobium aromaticivorans
notes: non-stereospecific glutathione lyase
B2: BaeA: heterodimeric β-aryl etherase of Saro_2872 (SEQ ID NO:40) and Saro_2873 (SEQ ID NO:42) from Novosphingobium aromaticivorans (protein)
chain 1: MSALLYHGEPNGASLTVLAALAETGLDIECRRIDLLAGERHSLPGIVDPVALDLSIEGEGPVLVIDGEAMTESVFLAQYLDEAAGGVGLQPTDAYARWEMMMWCRQITERLSPAAALLGNLATSQSAIAAIPAEDFAILAARIVSDDLRERWQALNDDAVNAAQVADSETKVAAAVDRCEKQLGDGREWLMGTFSIADLVTYSWLAGMEPLRPAAFADAPLVKAWLARTAARPCVQAALARATISEPLRAWAPGPEINRWG
chain 2: MDEVSLYHWEPNANSGKPMLALMEKGVPFSSHYIDMLQFDQHKPEYLAINPQGTIPAMTHNGQVLTESTAIMEYVNDRFDGPDLMPADAQDRWRVRWWMKFMDQWLGPSFSMIGWSVFVGPMVRQRDPAELAAAIDRIPLPERRTAWRKAINGDFSESEMAESRRRVGLGIAKLEEELGKRPYVGSNQYSLADINIFNSTYSLPISQPDLAGKDRTPNIMRWLKRVYTREAVKKTWAMGKTDLAHRYGLIMAEIEG
modifications: Novosphingobium aromaticivorans

Legend:
Assay type in all cases: biochemical
[1] = Kinetics analysis of GS-HPV cleavage (conversion into HPV), β(S)-stereoisomer
Procedure: (§1) Kinetics analysis of GS-HPV cleavage. The Reaction Buffer (RB) consisted of 25 mM Tris-HCl (pH 8.5) and 25 mM NaCl. The β(R)- and β(S)-stereoisomers of GS-HPV were separately generated by incubating racemic MPHPV (0.46 mM) in RB with 5 mM reduced glutathione (GSH) and either 38 μg/mL LigF1 or 36 μg/mL LigE, respectively, for several h. This sample, containing a single GS-HPV stereoisomer, guaiacol, and the unreacted MPHPV stereoisomer, was diluted with RB to achieve the desired concentration of GS-HPV for the time course reaction (0.005, 0.011, 0.022, 0.096, or 0.193 mM). An additional 5 mM GSH (dissolved in RB) was added prior to initiation of each time course. […] Assays were performed at 25° C., and at specified time points, 300 μL of the reaction was removed and combined with 100 μL 1 M HCl (Acros Organics; Geel, Belgium) to stop the reaction before HPLC analysis to quantify HPV formed.
(§2) HPLC analysis. After extracellular aromatics were identified using LC-MS, routine analysis and quantification of aromatics were performed using an Ultra AQ C18 5 μm column (Restek, Bellefonte, Pa.) attached to a System Gold HPLC (Beckman Coulter, Brea, Calif.) with running buffers and chromatography conditions described in FIG. 14. […]

[2] = Kinetics analysis of GS-HPV cleavage (conversion into HPV), β(R)-stereoisomer
Procedure: as §1, §2

[3] = Assays to determine activities and stereospecificities of Saro_2872 and Saro_2873
Procedure: Cell-free protein synthesis. Cell-free protein synthesis was run essentially as previously described (Makino et al. 2014). The Saro_2872 polypeptide contained a His6-tag and a Tev protease recognition site on its N-terminus that were not removed. The Saro_2873 polypeptide was synthesized in its native form. Synthesized polypeptides were not purified from the synthesis reaction mixture; assays for enzymatic activity were performed by adding aliquots directly from the synthesis reaction. Concentrations of the Saro_2872 and Saro_2873 polypeptides in the reaction mixtures were approximated using the intensities of the bands in an SDS-PAGE gel.
0.1 mM racemic (β(S) and β(R)) MPHPV was combined with 5.8 mM glutathione (GSH) in reaction buffer (RB; 25 mM Tris-HCl (pH 8.0) and 25 mM NaCl). […] These 212 μL reactions were incubated at 30° C. for several hours, then analyzed via HPLC.
HPLC analysis. Analysis and quantification of aromatic compounds were performed using an Ultra AQ C18 5 μm column (Restek) attached to a System Gold HPLC (Beckman Coulter) with running buffers and methods described in Example 1. The eluent was analyzed for light absorbance between 191 and 600 nm, and absorbances at 280 nm were used for quantification of aromatic metabolites by comparing peak areas to those of standards.

| Molecule | kcat/KM with the β(S)-isomer, fold higher than with the β(R)-isomer [1] | KM with β(R)-GS-HPV, fold higher than with β(S)-GS-HPV [2] | conversion of racemic MPHPV into GS-HPV and guaiacol ([3]; both polypeptides combined, ~24 nM each, 30° C.) | reaction with β(S)-MPHPV ([3]; recombinantly generated Saro_2872-Saro_2873 complex) |
| --- | --- | --- | --- | --- |
| B1 | ~4 fold | ~5 fold |  |  |
| B2 |  |  | half of the MPHPV was converted | did not react |
